Assay results reported in patent publication US20030186322A1 (Scripps Research, published 2003).

B1: 92H2 phage Fv (VH-(Gly4Ser)-pVII / VL-(Gly4Ser)-pIX heterodimer displayed on phage) (other)
VH: MAEVQLQQSGPELKKPGETVKISCKTSGYSFTNYGMNWVKQAPGKGLKWMGWINTYTGEPTYADDFRGRFAFSLATSASTAYLQIINLKNEDTATYFCETYDSPLGDYWGQGTTVTVSSSSGGGGSGMEQVADFDTIYQAMIQISVVLCFALGIIAGGQR
VL: DIGLTQSPASLAVSLGQRATISCRASKSVSTSGYNYMHWYQQKPGQPPKLLIYLASNLASGVPARFSGSGSGTDFTLNIHPVEEEDAATYYCLYSREFPPWTFGGGTKLEIKRSGGGGSMSVLVYSFASFVLGWCLRSGITYFTRLMETSS
notes: also called 92H2 phage antibody; 92H2-VHVL
B2: 21H3 phage Fv (VH-(Gly4Ser)-pVII / VL-(Gly4Ser)-pIX heterodimer displayed on phage) (other)
VH: MAEVQLLEVQLQQSGPVLVKPGGSVKMSCKASEYTLTSYLFQWVKQKSGQGLEWIGYIYPYNGGTRYNEKFRGKATLTSDKSSNTAYLELSSLTSEDSAVYYCARSSMSDPGANWGPGTLVTVSGGGGSGMEQVADFDTIYQAMIQISVVLCFALGIIAGGQR
VL: DIQMTQSPSSLSASLGERVSLTCRASQEISGYLYWLQQKPDGTIKRLIYAASTLDSGVPKRFSGSRSGSDYSLTISSLESEDFADYYCLQYASYPRTFGGGTKVEIKRADSGGGGSMSVLVYSFASFVLGWCLRSGITYFTRLMETSS
notes: also called 21H3 phage antibody; 21H3-VHVL
B3: 2H6 phage Fv (VH-(Gly4Ser)-pVII / VL-(Gly4Ser)-pIX heterodimer displayed on phage) (other)
VH: MAEVQLLEEVNLVESGGGLVKPGGSLKLSCAASGFTFSSYAMSWVRQTPEKRLEWVASINNGGKIYYPDSVKGRFTISRDNARNILYLQMSSLRSEDTAMYYCVKRDSSVYDYAMDNWGQGTSVTVSSGGGGSGMEQVADFDTIYQAMIQISVVLCFALGIIAGGQR
VL: VLTQSPAIMYASPGEKVTITCSASSSVSYMHWFQQKPGTSPKLWIYSTSKLASGVPARFSGSGSGTSYSLTISRMEAEDVATYYCQQRSSYTVTFGAGTKLELKRTSGGGGSMSVLVYSFASFVLGWCLRSGITYFTRLMETSS
notes: also called 2H6 phage antibody; 2H6-VHVL

target: T1, BSA (bovine serum albumin) (bovine, UniProt P02769 25-607); test: phage ELISA
T1 construct: Carrier protein without hapten; also called BSA-gold complex
Experimental: The supernatant of the phage culture described above was directly used for ELISA. Microtiter wells (Corning) were coated with 25 μl of 10 μg/ml mouse anti-Flag antibody to assay Flag constructs with pVII/pIX, with PCP-BSA for 21H3 and 2H6 constructs, and with the cocaine conjugate GNC—BSA to assay the 92H2 construct. The coated plates were then incubated at room temperature overnight and blocked with 50 μl of Blotto (4% skim milk powder in PBS). Typically, 25 μl of phage supernatant was added and the plate was incubated at 37 C. for 1 hr. After washing, 25 μl of 1/1000 dilution of horseradish peroxidase/anti-M13 conjugate (Pharmacia) in Blotto was added and incubated at 37 C. for 30 minutes. The plate was extensively washed three times with PBS/0.1% tween-20 and pipetted vigorously up and down to remove nonspecific binding phage. The plate was then developed with TMB (3,3′,5,5′-tetramethylbenzidine) substrate (Pierce) and quenched with an equal volume of 2 M H₂SO₄. The absorbance of each reaction was then read on an ELISA Plate reader at 450 nM.

T1 sequence (P02769 25-607 limits assumed): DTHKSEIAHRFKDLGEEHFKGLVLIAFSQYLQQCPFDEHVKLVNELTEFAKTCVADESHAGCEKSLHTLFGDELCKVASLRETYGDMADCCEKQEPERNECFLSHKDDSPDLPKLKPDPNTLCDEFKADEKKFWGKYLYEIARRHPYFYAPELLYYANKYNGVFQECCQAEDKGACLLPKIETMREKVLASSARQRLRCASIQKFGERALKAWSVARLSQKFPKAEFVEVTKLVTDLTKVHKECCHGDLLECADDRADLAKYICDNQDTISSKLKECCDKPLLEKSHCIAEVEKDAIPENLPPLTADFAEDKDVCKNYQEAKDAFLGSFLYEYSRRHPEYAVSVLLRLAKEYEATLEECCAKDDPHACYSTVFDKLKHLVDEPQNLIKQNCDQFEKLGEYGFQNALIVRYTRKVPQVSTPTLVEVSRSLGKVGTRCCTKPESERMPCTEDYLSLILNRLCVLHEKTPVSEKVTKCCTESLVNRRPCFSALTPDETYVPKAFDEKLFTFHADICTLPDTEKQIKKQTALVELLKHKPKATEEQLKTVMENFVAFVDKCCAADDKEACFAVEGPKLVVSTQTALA

| Binder | binding result |
| --- | --- |
| B1 | no binding |
| B2 | no binding |
| B3 | no binding |
